# In FireProtDB (doi:10.1021/bi990285w):
# Several values for one entry are separate records, joined by “and”; a condition that tells them apart may be missing. Identical values can stand only once.
# B1: Barstar wild type, P11540 (protein)
# chain: MKKAVINGEQIRSISDLHQTLKKELALPEYYGENLDALWDCLTGWVEYPLVLEWRQFEQSKQLTENGAESVLQVFREAKAEGCDITIILS
# Conditions: Bacillus amyloliquefaciens; pH 8; 22 °C; GdnHCl; Fluorescence; phosphate 20 mM; whole UniProt chain shown
protein,measurement,value
B1,denaturant m value,2.5 kcal/mol/M and 1.45 kcal/mol/M and 2.2 kcal/mol/M
same,unfolding free energy,5.1 kcal/mol and 2.1 kcal/mol and 5.6 kcal/mol
